Test results taken from article PMC6360533 (Neuron, 2018).

What was measured:
[1] = molecular target: the molecule itself; test: SEC-MALS
[2] = molecular target: the molecule itself; test: SEC
[3] = molecular target: the molecule itself; test: native gel or EMSA

B1: purified mouse TMC1 (mmTMC1) reconstituted into amphipols (natural protein, UniProt Q8R4P5 1-757, looked up)
chain: MLQIQVEEKEEDTEESSSEEEEDKLPRRESLRPKRKRTRDVINEDDPEPEPEDEETRKAREKERRRRLRRGAEEEEEIDEEELERLKALLDENRQMIATVKCKPWKMEKKIEVLKEAKKFVSENEGALGKGKGKKWFAFKMMMAKKWAKFLRDFENFKAACVPWENKIKAIESQFGSSVASYFLFLRWMYGVNMVLFVLTFSLIMLPEYLWGLPYGSLPRKTVPRAEEASAANFGVLYDFNGLAQYSVLFYGYYDNKRTIGWLNFRLPLSYFLVGIMCIGYSFLVVLKAMTKNIGDDGGGDDNTFNFSWKVFCSWDYLIGNPETADNKFNSITMNFKEAIIEERAAQVEENIHLIRFLRFLANFFVFLTLGASGYLIFWAVKRSQEFAQQDPDTLGWWEKNEMNMVMSLLGMFCPTLFDLFAELEDYHPLIALKWLLGRIFALLLGNLYVFILALMDEINNKIEEEKLVKANITLWEANMIKAYNESLSGLSGNTTGAPFFVHPADVPRGPCWETMVGQEFVRLTVSDVLTTYVTILIGDFLRACFVRFCNYCWCWDLEYGYPSYTEFDISGNVLALIFNQGMIWMGSFFAPSLPGINILRLHTSMYFQCWAVMCCNVPEARVFKASRSNNFYLGMLLLILFLSTMPVLYMIVSLPPSFDCGPFSGKNRMFEVIGETLEHDFPSWMAKILRQLSNPGLVIAVILVMVLTIYYLNATAKGQKAANLDLKKKMKQQALENKMRNKKMAAARAAAAAGGQ
B1 was tested, and the “stoichiometry N” value [1] was 2.

B2: human TMC1 (hsTMC1) fused to GFP (natural protein, UniProt Q8TDI8 1-760, looked up)
chain: MSPKKVQIKVEEKEDETEESSSEEEEEVEDKLPRRESLRPKRKRTRDVINEDDPEPEPEDEETRKAREKERRRRLKRGAEEEEIDEEELERLKAELDEKRQIIATVKCKPWKMEKKIEVLKEAKKFVSENEGALGKGKGKRWFAFKMMMAKKWAKFLRDFENFKAACVPWENKIKAIESQFGSSVASYFLFLRWMYGVNMVLFILTFSLIMLPEYLWGLPYGSLPRKTVPRAEEASAANFGVLYDFNGLAQYSVLFYGYYDNKRTIGWMNFRLPLSYFLVGIMCIGYSFLVVLKAMTKNIGDDGGGDDNTFNFSWKVFTSWDYLIGNPETADNKFNSITMNFKEAITEEKAAQVEENVHLIRFLRFLANFFVFLTLGGSGYLIFWAVKRSQEFAQQDPDTLGWWEKNEMNMVMSLLGMFCPTLFDLFAELEDYHPLIALKWLLGRIFALLLGNLYVFILALMDEINNKIEEEKLVKANITLWEANMIKAYNASFSENSTGPPFFVHPADVPRGPCWETMVGQEFVRLTVSDVLTTYVTILIGDFLRACFVRFCNYCWCWDLEYGYPSYTEFDISGNVLALIFNQGMIWMGSFFAPSLPGINILRLHTSMYFQCWAVMCCNVPEARVFKASRSNNFYLGMLLLILFLSTMPVLYMIVSLPPSFDCGPFSGKNRMFEVIGETLEHDFPSWMAKILRQLSNPGLVIAVILVMVLAIYYLNATAKGQKAANLDLKKKMKMQALENKMRNKKMAAARAAAAAGRQ
For B2, the “stoichiometry N” value [2] was 2.

B3: purified human TMC1 (hsTMC1) reconstituted into amphipols (natural protein, UniProt Q8TDI8 1-760, looked up)
chain: MSPKKVQIKVEEKEDETEESSSEEEEEVEDKLPRRESLRPKRKRTRDVINEDDPEPEPEDEETRKAREKERRRRLKRGAEEEEIDEEELERLKAELDEKRQIIATVKCKPWKMEKKIEVLKEAKKFVSENEGALGKGKGKRWFAFKMMMAKKWAKFLRDFENFKAACVPWENKIKAIESQFGSSVASYFLFLRWMYGVNMVLFILTFSLIMLPEYLWGLPYGSLPRKTVPRAEEASAANFGVLYDFNGLAQYSVLFYGYYDNKRTIGWMNFRLPLSYFLVGIMCIGYSFLVVLKAMTKNIGDDGGGDDNTFNFSWKVFTSWDYLIGNPETADNKFNSITMNFKEAITEEKAAQVEENVHLIRFLRFLANFFVFLTLGGSGYLIFWAVKRSQEFAQQDPDTLGWWEKNEMNMVMSLLGMFCPTLFDLFAELEDYHPLIALKWLLGRIFALLLGNLYVFILALMDEINNKIEEEKLVKANITLWEANMIKAYNASFSENSTGPPFFVHPADVPRGPCWETMVGQEFVRLTVSDVLTTYVTILIGDFLRACFVRFCNYCWCWDLEYGYPSYTEFDISGNVLALIFNQGMIWMGSFFAPSLPGINILRLHTSMYFQCWAVMCCNVPEARVFKASRSNNFYLGMLLLILFLSTMPVLYMIVSLPPSFDCGPFSGKNRMFEVIGETLEHDFPSWMAKILRQLSNPGLVIAVILVMVLAIYYLNATAKGQKAANLDLKKKMKMQALENKMRNKKMAAARAAAAAGRQ
In the case of B3, the “stoichiometry N” value [3] is reported as 2.
